Assay results published in patent US20180036441A1 (Dana-Farber, published 2018).
Where a chain is given by its changes, count along the chain named.

B1: VH5 + VL3 (antibody, V domains shown)
VH: EVQLVQSGAEVKKPGESLKISCKGSGYAFSNFWMNWVRQMPGKGLEWMGQIYPGDGDTNYNGKFKGQVTISADKSISTAYLQWSSLKASDTAMYYCARSYYRSAWFAYWGQGTLVTVSL
VL: EIVLTQSPATLSLSPGERATLSCRASQSIGTSIHWYQQKPGQAPRLLIYYASESISGIPARFSGSGSGTDFTLTISSLEPEDFAVYYCQQSNNWPLTFGGGTKVEIK
notes: Humanized IgG expressed in HEK293; also called humanized antibody VH5+VL3
B2: VH5 + VL4 (antibody, V domains shown)
VH: B1 VH
VL: AIQLTQSPSSLSASVGDRVTITCRASQSIGTSIHWYQQKPGKAPKLLIYYASESISGVPSRFSGSGSGTDFTLTISSLQPEDFATYYCQQSNNWPLTFGGGTKVEIK
notes: Humanized IgG expressed in HEK293; also called humanized antibody VH5+VL4
B3: VH2 + VL1 (antibody, V domains shown)
VH: QVQLVQSGAEVKKPGASVKVSCKASGYAFSNFWMNWVRQAPGQGLEWMGQIYPGDGDTNYNGKFKGRVTMTRDTSTSTVYMELSSLRSEDTAVYYCARSYYRSAWFAYWGQGTLVTVSS
VL: EIVLTQSPDFQSVTPKEKVTITCRASQSIGTSIHWYQQKPDQSPKLLIKYASESISGVPSRFSGSGSGTDFTLTINSLEAEDAATYYCQQSNNWPLTFGQGTKVEIK
notes: Humanized IgG expressed in HEK293; also called humanized antibody VH2+VL1
B4: VH1 + VL1 (antibody, V domains shown)
VH: B3 VH with A16S, M70I, R72A, T74K, V79A
VL: B3 VL
notes: Humanized IgG expressed in HEK293; also called humanized antibody VH1+VL1
B5: VH3 + VL1 (antibody, V domains shown)
VH: B3 VH with T76I, V79A, S85R, E89D
VL: B3 VL
notes: Humanized IgG expressed in HEK293; also called humanized antibody VH3+VL1
B6: VH5 + VL2 (antibody, V domains shown)
VH: B1 VH
VL: B1 VL with L4M, L13V, D70E, E79Q, P80S
notes: Humanized IgG expressed in HEK293; also called humanized antibody VH5+VL2
B7: VH5 + VL5 (antibody, V domains shown)
VH: B1 VH
VL: B2 VL with A1D, Q3V, L4M, S10L, V15T, T22S, K45E, S77C, P80S, G100Q
notes: Humanized IgG expressed in HEK293; also called humanized antibody VH5+VL5
B8: VH2 + VL5 (antibody, V domains shown)
VH: B3 VH
VL: B2 VL with A1D, Q3V, L4M, S10L, V15T, T22S, K45E, S77C, P80S, G100Q
notes: Humanized IgG expressed in HEK293; also called humanized antibody VH2+VL5
B9: VH4 + VL4 (antibody, V domains shown)
VH: B3 VH with S17T, V20I, A24V, R38Q, Q43K, M70I, R72A, S77D, V79A, S119R
VL: B2 VL
notes: Humanized IgG expressed in HEK293; also called humanized antibody VH4+VL4
B10: VH1 + VL2 (antibody, V domains shown)
VH: B3 VH with A16S, M70I, R72A, T74K, V79A
VL: B1 VL with L4M, L13V, D70E, E79Q, P80S
notes: Humanized IgG expressed in HEK293; also called humanized antibody VH1+VL2
B11: VH1 + VL3 (antibody, V domains shown)
VH: B3 VH with A16S, M70I, R72A, T74K, V79A
VL: B1 VL
notes: Humanized IgG expressed in HEK293; also called humanized antibody VH1+VL3
B12: VH2 + VL2 (antibody, V domains shown)
VH: B3 VH
VL: B1 VL with L4M, L13V, D70E, E79Q, P80S
notes: Humanized IgG expressed in HEK293; also called humanized antibody VH2+VL2
B13: VH3 + VL2 (antibody, V domains shown)
VH: B3 VH with T76I, V79A, S85R, E89D
VL: B1 VL with L4M, L13V, D70E, E79Q, P80S
notes: Humanized IgG expressed in HEK293; also called humanized antibody VH3+VL2
B14: VH4 + VL3 (antibody, V domains shown)
VH: B3 VH with S17T, V20I, A24V, R38Q, Q43K, M70I, R72A, S77D, V79A, S119R
VL: B1 VL
notes: Humanized IgG expressed in HEK293; also called humanized antibody VH4+VL3
B15: VH4 + VL2 (antibody, V domains shown)
VH: B3 VH with S17T, V20I, A24V, R38Q, Q43K, M70I, R72A, S77D, V79A, S119R
VL: B1 VL with L4M, L13V, D70E, E79Q, P80S
notes: Humanized IgG expressed in HEK293; also called humanized antibody VH4+VL2
B16: VH3 + VL5 (antibody, V domains shown)
VH: B3 VH with T76I, V79A, S85R, E89D
VL: B2 VL with A1D, Q3V, L4M, S10L, V15T, T22S, K45E, S77C, P80S, G100Q
notes: Humanized IgG expressed in HEK293; also called humanized antibody VH3+VL5
B17: VH1 + VL5 (antibody, V domains shown)
VH: B3 VH with A16S, M70I, R72A, T74K, V79A
VL: B2 VL with A1D, Q3V, L4M, S10L, V15T, T22S, K45E, S77C, P80S, G100Q
notes: Humanized IgG expressed in HEK293; also called humanized antibody VH1+VL5
B18: VH4 + VL5 (antibody, V domains shown)
VH: B3 VH with S17T, V20I, A24V, R38Q, Q43K, M70I, R72A, S77D, V79A, S119R
VL: B2 VL with A1D, Q3V, L4M, S10L, V15T, T22S, K45E, S77C, P80S, G100Q
notes: Humanized IgG expressed in HEK293; also called humanized antibody VH4+VL5

What follows are binders tested against T1, MUC1 on HCT116/MUC1 cells (UniProt P15941 24-1255, limits assumed) (assay: FACS titration on HCT116/MUC1 cells).
T1 construct: whole, on cells; also called MUC1 overexpressed cell line
T1 sequence (P15941 24-1255 limits assumed): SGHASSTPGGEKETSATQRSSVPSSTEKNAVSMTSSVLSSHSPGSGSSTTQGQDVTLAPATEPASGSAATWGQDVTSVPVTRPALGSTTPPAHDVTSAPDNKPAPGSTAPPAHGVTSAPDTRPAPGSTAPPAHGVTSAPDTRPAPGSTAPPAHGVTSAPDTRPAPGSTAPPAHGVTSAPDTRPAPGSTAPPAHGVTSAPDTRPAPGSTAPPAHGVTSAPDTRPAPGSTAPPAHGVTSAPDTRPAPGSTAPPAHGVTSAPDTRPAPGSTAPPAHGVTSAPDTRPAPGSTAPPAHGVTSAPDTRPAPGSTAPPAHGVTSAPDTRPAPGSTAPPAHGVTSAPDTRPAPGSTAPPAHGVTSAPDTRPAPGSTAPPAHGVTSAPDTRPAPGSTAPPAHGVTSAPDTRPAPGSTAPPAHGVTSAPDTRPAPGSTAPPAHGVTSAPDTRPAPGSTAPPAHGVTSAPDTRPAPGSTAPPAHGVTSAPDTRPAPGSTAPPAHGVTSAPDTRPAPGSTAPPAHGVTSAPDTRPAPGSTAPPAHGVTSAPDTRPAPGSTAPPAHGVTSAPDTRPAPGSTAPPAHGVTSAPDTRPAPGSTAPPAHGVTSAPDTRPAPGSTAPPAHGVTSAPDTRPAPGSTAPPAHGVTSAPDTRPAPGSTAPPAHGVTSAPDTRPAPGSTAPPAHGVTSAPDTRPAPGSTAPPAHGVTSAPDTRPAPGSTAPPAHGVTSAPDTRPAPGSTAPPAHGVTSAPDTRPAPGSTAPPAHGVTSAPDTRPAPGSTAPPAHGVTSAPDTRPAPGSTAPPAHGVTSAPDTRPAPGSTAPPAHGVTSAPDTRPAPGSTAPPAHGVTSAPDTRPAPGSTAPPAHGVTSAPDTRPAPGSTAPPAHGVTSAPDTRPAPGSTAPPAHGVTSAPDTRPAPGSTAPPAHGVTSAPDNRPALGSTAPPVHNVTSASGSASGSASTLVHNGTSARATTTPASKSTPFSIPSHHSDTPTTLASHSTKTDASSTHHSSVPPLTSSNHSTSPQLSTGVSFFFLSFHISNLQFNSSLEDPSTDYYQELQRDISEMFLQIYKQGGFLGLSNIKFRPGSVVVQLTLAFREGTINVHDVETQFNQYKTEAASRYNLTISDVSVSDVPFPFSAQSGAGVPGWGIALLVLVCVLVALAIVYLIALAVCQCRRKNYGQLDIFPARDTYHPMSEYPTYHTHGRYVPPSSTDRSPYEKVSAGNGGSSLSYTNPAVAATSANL
Experimental: (§1) To assess cell binding, 2×10⁵ HCT116/MUC1 cells per well were washed with PBS twice and incubated in 200 μl of serial dilutions of chimeric or humanized antibodies for 1 hour at room temperature. After washing 3 times with PBS, secondary antibody (2 μg/ml Alexa Flour®488 goat anti-human IgG) was added to cells and incubated for 30 minutes at room temperature. After washing with PBS, cells were analyzed by using FACSCalibur (BD Bioscience, San Jose, Calif.) and Flowjo software.

Binder	EC50 [nM]
B1	21.9
B2	20.6
B3	58.6
B4	30.3
B5	28.7

These binders were tested against T1, MUC1 on HCT116/MUC1 cells (assay: FACS titration, HCT116/MUC1 cells, antibody at 125 nM).
Experimental: as §1

Binder	geometric mean
B1	126
B2	202
B3	306
B4	332
B5	305

These binders were tested against T1, MUC1 on HCT116/MUC1 cells (assay: FACS titration, HCT116/MUC1 cells, antibody at 250 nM).
Experimental: as §1

Binder	geometric mean
B1	167
B2	193
B3	337
B4	363
B5	321

These binders were tested against T1, MUC1 on HCT116/MUC1 cells (assay: FACS titration, HCT116/MUC1 cells, antibody at 500 nM).
Experimental: as §1

Binder	geometric mean
B1	170
B2	199
B3	342
B4	351
B5	334

Each binder was assayed against T1, MUC1 on HCT116/MUC1 cells (assay: FACS titration, HCT116/MUC1 cells, antibody at 62.5 nM).
Experimental: as §1

Binder	geometric mean
B1	141
B2	190
B3	265
B4	290
B5	263

What follows are binders tested against T2, MUC1-SEA-His protein (UniProt P15941 1039-1148, limits assumed) (assay: SPR Biacore T200, antibody captured, antigen as analyte).
T2 construct: domain: SEA; Recombinant antigen used for ELISA coating and as Biacore analyte; also called MUC-SEA-His; antigen protein; not shown: His tag
T2 sequence (looked up): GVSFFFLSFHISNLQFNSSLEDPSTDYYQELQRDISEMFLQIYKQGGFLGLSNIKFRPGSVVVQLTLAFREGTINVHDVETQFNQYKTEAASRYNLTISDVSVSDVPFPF
Experimental: Antibody affinity was determined using a Surface Plasmon Resonance (SPR) biosensor, Biacore T200 (GE Healthcare). Antibody was immobilized on the sensor chip through Fc capture method. Antigen protein was used as the analyte. The data of dissociation (kd) and association (ka) rate constants were obtained using Biacore T200 evaluation software. The apparent equilibrium dissociation constants (KD) were calculated from the ratio of kd over ka. For affinity ranking, twenty-five humanized antibodies plus chimericantibody were injected and captured on sensor chip individually. The antibodies were ranked based on their dissociation rates (kd).

Binder	koff [s⁻¹]
B1	0.0164
B6	0.0228
B2	0.0179
B7	0.0207
B3	0.00133
B4	0.0021
B5	0.0015
B8	0.0193
B9	0.0243
B10	0.0294
B11	0.0225
B12	0.0166
B13	0.0195
B14	0.0237
B15	0.0315
B16	0.023
B17	0.0302
B18	0.0578

The binders below were run against T1, MUC1 on HCT116/MUC1 cells (assay: FACS titration, HCT116/MUC1 cells, antibody at 0.244 nM).
Experimental: as §1

Binder	geometric mean
B1	2.82
B2	2.84
B3	3
B4	2.72
B5	3.1

These binders were tested against T1, MUC1 on HCT116/MUC1 cells (assay: FACS titration, HCT116/MUC1 cells, antibody at 0.488 nM).
Experimental: as §1

Binder	geometric mean
B1	3.27
B2	3.52
B3	3.27
B4	3
B5	3.81

These binders were tested against T1, MUC1 on HCT116/MUC1 cells (assay: FACS titration, HCT116/MUC1 cells, antibody at 0.977 nM).
Experimental: as §1

Binder	geometric mean
B1	4.13
B2	4.01
B3	3.68
B4	3.17
B5	6.94

What follows are binders tested against T1, MUC1 on HCT116/MUC1 cells (assay: FACS titration, HCT116/MUC1 cells, antibody at 1.953 nM).
Experimental: as §1

Binder	geometric mean
B1	8.05
B2	5.71
B3	4.38
B4	5.68
B5	11.4

The binders below were run against T1, MUC1 on HCT116/MUC1 cells (assay: FACS titration, HCT116/MUC1 cells, antibody at 3.906 nM).
Experimental: as §1

Binder	geometric mean
B1	15.5
B2	15.3
B3	5.23
B4	9.54
B5	16.3

What follows are binders tested against T1, MUC1 on HCT116/MUC1 cells (assay: FACS titration, HCT116/MUC1 cells, antibody at 31.25 nM).
Experimental: as §1

Binder	geometric mean
B1	110
B2	152
B3	126
B4	185
B5	192

What follows are binders tested against T1, MUC1 on HCT116/MUC1 cells (assay: FACS titration, HCT116/MUC1 cells, antibody at 7.812 nM).
Experimental: as §1

Binder	geometric mean
B1	31
B2	28.6
B3	6.37
B4	23.1
B5	36

Each binder was assayed against T1, MUC1 on HCT116/MUC1 cells (assay: FACS titration, HCT116/MUC1 cells, antibody at 15.625 nM).
Experimental: as §1

Binder	geometric mean
B1	61.5
B2	67.1
B3	29
B4	68.7
B5	71.3
